Source: the Human Domainome abundance scans (Beltran et al. 2025)

B1: Retinoic acid receptor beta, residues 85 to 161; numbered along this chain, P10826 (parent)
chain: YKPCFVCQDKSSGYHYGVSACEGCKGFFRRSIQKNMIYTCHRDKNCVINKVTRNRCQYCRLQKCFEVGMSKESVRND

Variants of: B1
Experiment: abundance fitness (aPCA) (normalised: wild type 0, dead -1); higher = more abundant; growth selection in yeast, the domain comes from the species named
Conditions: Homo sapiens

Abundance fitness, by site and new letter:
S73: R 0.016, V 0.001, D 0.133, K 0.131, P 0.002, T -0.106, Q -0.043, F -0.016, L 0.088, A 0.1, M 0.092, Y -0.231, G 0.017, W -0.091, H -0.061, E 0.091
F65: W -0.174, M 0.026, T -0.02, R -0.22, L 0.014, K -0.081, P -0.542, I 0.119, S -0.31, Y -0.009, Q -0.156, N -0.128, V -0.019
E72: K -0.191, Q -0.134, D 0.127, W -0.271, V -0.163, T -0.004, P -0.101, G -0.128, I -0.184, N 0.04, A -0.113, H -0.117, R -0.151, S -0.037, M -0.098, L -0.237, F -0.337, C -0.075
G68: I -0.95, K -0.392, D -0.663, T -0.687, N -0.338, V -0.81, Y -1.05, M -0.77, R -0.681, S -0.595, L -0.807, P -0.738, C -0.698, E -0.763, W -0.779, F -0.204, A -0.804, H -0.743, Q -0.698
E66: G -0.014, Y -0.136, N -0.028, A -0.105, S -0.078, Q -0.011, T 0.008, F -0.036, M 0.082, C -0.153, I -0.092, V -0.032, R 0.011, W -0.139, P -0.595, D 0.096, L -0.039
M69: C -0.31, G -0.813, I -0.142, T -0.515, W -0.235, K -0.983, P -0.917, Y -0.588, D -0.498, F -0.406, R -0.741, A -0.81, E -0.751, N -0.725, V -0.591
V74: M -0.027, R -0.188, F -0.064, K -0.219, S -0.035, P -0.068, T -0.012, C 0.003, G -0.081, H -0.13, D 0.094, Q -0.012, W -0.14, I 0.036, L -0.018, N -0.067
K71: I -0.078, R -0.102, F -0.189, W -0.139, D -0.085, A -0.027, N -0.04, S -0.005, T 0.067, H -0.24, P -0.154, L -0.027, V -0.151, M -0.104, Q -0.007, C -0.148, E 0.103, G -0.004, Y -0.216
V67: G -0.161, C -0.172, T -0.178, W -0.636, M -0.063, F -0.054, H -0.354, A -0.012, Y -0.645, Q -0.035, R -0.291, S -0.059, L -0.084, D -0.8, E -0.282, K 0.017
S70: G -0.184, E 0.039, W -0.417, H 0.022, A -0.047, R -0.053, V 0.038, Q -0.009, D -0.085, Y -0.291, C -0.076, M -0.115, K 0.078, P -0.304, L 0.071, T 0.067, I 0.262, F -0.111
